The target in this series is LINE-1 ORF2p (L1 ORF2p), wild type (Homo sapiens, UniProt O00370 1-1275). Kind of series: cryo-EM structure (3.2 A); dTTP bound as incoming nucleotide; dTTP, dATP, ddGTP 1 mM each; 10 mM MgCl2; BS3 cross-linked; Cryo-EM: 600 nm ORF2p, RNA-DNA duplex 2:1 over protein, 30 mM K-HEPES pH 7.9, 150 mM KCl, 10 mM MgCl2, 5 mM EGTA, 1 mM DTT, 37 C 30 s, then 4 mM BS3 on ice 5 mi.

The record followed here is article PMC10830416.

Chain of LINE-1 ORF2p (L1 ORF2p), wild type (O00370 whole entry): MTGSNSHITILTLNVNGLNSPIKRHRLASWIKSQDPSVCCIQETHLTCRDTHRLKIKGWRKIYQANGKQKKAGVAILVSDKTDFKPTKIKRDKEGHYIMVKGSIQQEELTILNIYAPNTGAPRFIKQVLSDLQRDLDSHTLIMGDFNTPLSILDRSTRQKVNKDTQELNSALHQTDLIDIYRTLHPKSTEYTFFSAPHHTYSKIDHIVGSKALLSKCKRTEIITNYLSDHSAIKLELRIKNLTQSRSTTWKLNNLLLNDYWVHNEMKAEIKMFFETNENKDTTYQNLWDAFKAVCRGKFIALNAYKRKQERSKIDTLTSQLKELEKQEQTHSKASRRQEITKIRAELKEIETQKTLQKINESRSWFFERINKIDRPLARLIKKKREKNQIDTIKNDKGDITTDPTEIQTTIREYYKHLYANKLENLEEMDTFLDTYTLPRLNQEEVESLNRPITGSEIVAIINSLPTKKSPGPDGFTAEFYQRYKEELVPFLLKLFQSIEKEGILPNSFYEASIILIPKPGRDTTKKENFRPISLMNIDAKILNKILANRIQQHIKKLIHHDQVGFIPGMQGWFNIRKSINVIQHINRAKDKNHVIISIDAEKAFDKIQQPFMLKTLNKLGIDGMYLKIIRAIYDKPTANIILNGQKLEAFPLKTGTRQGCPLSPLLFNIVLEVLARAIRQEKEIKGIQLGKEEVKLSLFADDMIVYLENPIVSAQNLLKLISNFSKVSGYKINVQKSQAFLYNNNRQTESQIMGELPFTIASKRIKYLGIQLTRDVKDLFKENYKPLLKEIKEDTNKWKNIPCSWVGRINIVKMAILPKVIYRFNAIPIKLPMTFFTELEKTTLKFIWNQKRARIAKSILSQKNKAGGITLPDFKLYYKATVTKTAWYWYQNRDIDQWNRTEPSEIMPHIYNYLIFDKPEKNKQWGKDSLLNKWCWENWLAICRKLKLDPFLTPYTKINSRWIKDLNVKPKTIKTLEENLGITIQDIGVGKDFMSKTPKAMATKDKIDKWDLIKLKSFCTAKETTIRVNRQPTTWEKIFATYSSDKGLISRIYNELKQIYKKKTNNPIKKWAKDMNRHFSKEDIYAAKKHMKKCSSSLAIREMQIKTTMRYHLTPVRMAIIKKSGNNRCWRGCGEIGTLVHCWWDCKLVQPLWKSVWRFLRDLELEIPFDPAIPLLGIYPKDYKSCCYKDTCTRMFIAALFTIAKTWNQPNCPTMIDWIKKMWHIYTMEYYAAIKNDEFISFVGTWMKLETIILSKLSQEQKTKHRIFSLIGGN

B1: Synthetic template RNA (74 nt) with 8 nt DNA primer extended to 13 nt, ending in ddG (mixed)
RNA: GCAGACUGCGUAGGCGUGCAGGAACCUGCACGCCUACGCAGUCUGCAAAAAAAAAAAAAAACAAUAUCGGCGCG
DNA: CGCGCCGATATTG
modifications: 3' dideoxyguanosine on the cDNA strand
As to B1, the binding result was “binds”.
